US20220185908A1
Like-named read-outs stand apart in the source and are kept apart here.

Tests used:
[1] = biological target: CD38 on cells (Raji, Daudi, REH, CD38-transfected HEK293) (human) (UniProt P28907); assay: flow cytometry, Raji cells expressing CD19 and CD38
[2] = biological target: CD38 on cells (Raji, Daudi, REH, CD38-transfected HEK293) (human) (UniProt P28907); assay: as above; remark: listed apart in the source
[3] = biological target: CD38 on cells (Raji, Daudi, REH, CD38-transfected HEK293) (human) (UniProt P28907); assay: flow cytometry, Raji cells; top asymptote fixed at about the maximum response of Darzalex

EC50 [1]: 0.195 µg/mL
Max MFI [1]: 4.02e+06 MFI
EC50 [2]: 1.27 nM
Adjusted EC50 [3]: 1.27 nM
Substance: Darzalex ® (CD38 control) (antibody)
